Measurements as given in patent US20260184814A1, “BROADLY NE[…] INFLUENZA NEURAMINIDASE” (priority 2022, published 2026).

Columns and labels:
[1] = biological target: N2 A/Switzerland/8060/2017 N245S (Influenza A virus (H3N2))
[2] = biological target: N2 A/HongKong/2671/2019 N245S (Influenza A virus (H3N2))
[3] = biological target: N2 A/Tanzania/205/2010 S245N 247T (Influenza A virus (H3N2))

Substance: 1G01 Fab
- Kd [1]: 398 nM
- Kd [2]: 375 nM
- Kd [3]: < 0.02 nM
